B1: Hairpin Ribozyme (parent)
chain: GUCCUCUUUCACGUGCGCGUGAAAGAGAGAAGUGAACCAGAGAAACACACGUUGUGGUAUAUUACCUGGUA

Variants of B1 are the subject of the series. The series is described as follows: self-cleavage, relative activity (ratio to wild type); higher = more cleavage; co-transcriptional.
As for C10G G25C, the self-cleavage is 0.358.

For U5C G32U, the self-cleavage worked out at 0.132.

For the variant G17C A45G, the self-cleavage stood at 0.112.

G19A U70C: the self-cleavage was found to be 0.922.

U60A A71C: the self-cleavage is 1.24.

For C12A A59U, the self-cleavage turned out to be 0.176.

For the variant U2A A45U, the self-cleavage came out at 0.0686.

For U8A A35U, the self-cleavage was 0.459.

As for U8A A35G, the self-cleavage turned out to be 0.483.

On to G51U U62A, for which the self-cleavage was 0.25.

Regarding U53G A64U, the self-cleavage came to 0.144.

Regarding G17U A36C, the self-cleavage was 0.587.

Turning to U14A U52A, the self-cleavage was determined as 1.03.

Turning to G1A U52A, the self-cleavage was 0.155.

Turning to G1C A59C, the self-cleavage stood at 0.113.

For A24C G34U, the self-cleavage came out at 1.43.

Regarding G19A G25U, the self-cleavage was 0.441.

On to U2A U60A, for which the self-cleavage was 0.175.

U9C A61C: the self-cleavage was found to be 0.183.

Take A47U A64C: the self-cleavage is 0.0694.

On to U14G A23C, for which the self-cleavage came to 0.754.

For the variant U9C C48G, the self-cleavage amounted to 0.145.

G17C A24U: the self-cleavage is 0.73.

On to G17C U62G, for which the self-cleavage turned out to be 0.216.

Turning to A22G A24C, the self-cleavage was determined as 0.705.

C3U U62G: the self-cleavage worked out at 0.259.

As to C50U C66A, the self-cleavage came out at 0.165.

Take C3U A31C: the self-cleavage turned out to be 0.267.

For the variant G54U U55G, the self-cleavage was determined as 0.399.

In the case of U52C U63G, the self-cleavage came to 0.341.

As for G29C G57C, the self-cleavage worked out at 0.131.

As for C4U A39C, the self-cleavage was determined as 0.251.

As for U7A A22U, the self-cleavage came to 0.814.

Turning to A11C G69C, the self-cleavage is 0.182.

Consider C48A U63C, for which the self-cleavage stood at 0.198.

Consider G25A U67G, for which the self-cleavage was determined as 0.176.

For the variant G15U U58A, the self-cleavage turned out to be 0.831.

As for G15U A49G, the self-cleavage was 0.539.

For the variant C65U A71U, the self-cleavage is 0.441.

Regarding G19U C65A, the self-cleavage is 0.733.

On to C18G G51U, for which the self-cleavage came out at 0.953.

G1A G57C: the self-cleavage was 0.163.

For U8C U55A, the self-cleavage turned out to be 0.16.

In the case of G34A A49U, the self-cleavage is 0.174.

On to U60A U67G, for which the self-cleavage turned out to be 0.187.

For the variant C3A G15A, the self-cleavage was 0.524.

For the variant C12U U53G, the self-cleavage was found to be 0.677.

G1U G29U: the self-cleavage turned out to be 0.154.

Turning to A61U C65G, the self-cleavage is 0.193.

In the case of G13C U55A, the self-cleavage worked out at 0.196.

Take U55C G56U: the self-cleavage came out at 0.321.

Regarding C4A U70G, the self-cleavage turned out to be 0.154.

On to A11G U52C, for which the self-cleavage is 0.944.

As to U53C C65U, the self-cleavage was found to be 0.274.

With C50A G54A, the self-cleavage amounted to 0.742.

On to G1A A41U, for which the self-cleavage was 0.225.

As for A23C G27C, the self-cleavage worked out at 0.187.

As for U14G A39C, the self-cleavage was 0.393.

As for U5A U62C, the self-cleavage came out at 0.224.

Take U7G A22U: the self-cleavage was determined as 0.59.

Regarding A31U U60C, the self-cleavage stood at 0.103.

Consider G42C U63C, for which the self-cleavage worked out at 0.148.

For G27C G54U, the self-cleavage came to 0.192.

Take G42A U55G: the self-cleavage was determined as 0.249.

With G32U G40U, the self-cleavage turned out to be 0.152.

Regarding A30C A47G, the self-cleavage was 0.0558.

Turning to C4U C48A, the self-cleavage came to 0.114.

For the variant A35C C46U, the self-cleavage amounted to 0.221.

As for A35C G42C, the self-cleavage is 0.505.

Turning to U2C C48U, the self-cleavage came out at 0.0586.

Consider G32C G57C, for which the self-cleavage came out at 0.113.

On to G27A U33G, for which the self-cleavage came out at 0.0835.

As to A41C U67G, the self-cleavage worked out at 0.124.

As to U2A U67C, the self-cleavage was 0.0778.

As to C38U U60C, the self-cleavage turned out to be 0.759.

Regarding C16G A24G, the self-cleavage came to 0.568.

On to G32U C46A, for which the self-cleavage came out at 0.272.

Turning to A31C A61G, the self-cleavage came to 0.0877.

In the case of U8A C65U, the self-cleavage amounted to 0.258.

Consider G51C U53A, for which the self-cleavage was 0.72.

On to U8A C37U, for which the self-cleavage stood at 0.56.

As to C50U A71G, the self-cleavage worked out at 0.457.

In the case of G27C A36C, the self-cleavage worked out at 0.113.

U7A G25A: the self-cleavage stood at 0.249.

As for C18A G27C, the self-cleavage stood at 0.165.

For G1U C4A, the self-cleavage worked out at 0.202.

On to U33A A43U, for which the self-cleavage is 0.115.

As to G56C U63A, the self-cleavage came out at 0.0712.

As to C16G G21A, the self-cleavage is 0.515.

With A26U C66G, the self-cleavage came to 0.16.

Turning to G57C U70A, the self-cleavage stood at 0.184.

Turning to G15U A61G, the self-cleavage came to 0.164.

With G19A G57C, the self-cleavage was 0.138.

With C6A G15C, the self-cleavage was 0.586.

For U63A U70A, the self-cleavage amounted to 0.0404.

As to C48U U62G, the self-cleavage turned out to be 0.108.

For U2G U5C, the self-cleavage stood at 0.271.

Regarding A24G A36C, the self-cleavage came to 0.466.

As to U9C A23G, the self-cleavage turned out to be 0.814.

Take A30C U67C: the self-cleavage was 0.0679.

A24G A47C: the self-cleavage was 0.245.

Regarding A28G A31C, the self-cleavage was 0.113.

Take G29U A64C: the self-cleavage came to 0.142.

In the case of G40U U63C, the self-cleavage came to 0.092.

A22G C66U: the self-cleavage came out at 0.453.

Take A22U U55G: the self-cleavage was determined as 0.298.

In the case of U9G U14A, the self-cleavage was determined as 0.612.

Take C16A G56C: the self-cleavage came out at 0.212.

G34U G56U: the self-cleavage came to 0.225.

For U2A G54U, the self-cleavage came to 0.119.

For the variant G56C A71U, the self-cleavage was found to be 0.119.

Consider C12U C18G, for which the self-cleavage was determined as 0.832.

For the variant G15C A41G, the self-cleavage was 1.04.

On to A35G C66G, for which the self-cleavage stood at 0.127.

On to C18U U62C, for which the self-cleavage worked out at 0.393.

For A22U A61U, the self-cleavage was determined as 0.198.

G15U A22G: the self-cleavage worked out at 1.12.

Consider G32C C65U, for which the self-cleavage is 0.0495.

Regarding A11C A30G, the self-cleavage came out at 0.0919.

In the case of C12A G57C, the self-cleavage worked out at 0.17.

With U7C C48G, the self-cleavage came out at 0.145.

With U14G U52C, the self-cleavage is 0.966.

C18U A49U: the self-cleavage turned out to be 0.141.

As for C6G C10A, the self-cleavage amounted to 0.354.

For C12G A43G, the self-cleavage was found to be 0.139.

Turning to C4A G69U, the self-cleavage turned out to be 0.169.

Regarding G40A A47G, the self-cleavage came out at 0.138.

On to U7G U33G, for which the self-cleavage came to 0.194.

In the case of A23G C46G, the self-cleavage worked out at 0.245.

Turning to A35G G69U, the self-cleavage is 0.285.

C66U G69U: the self-cleavage turned out to be 0.187.

Take A11G A61U: the self-cleavage was 0.136.

For A11U A44U, the self-cleavage is 0.22.

G17A C66A: the self-cleavage came to 0.26.

With A26G U33G, the self-cleavage is 0.0904.

Regarding U14A C66A, the self-cleavage was found to be 0.0937.

For the variant U8G A45G, the self-cleavage stood at 0.125.

In the case of G1A U58A, the self-cleavage stood at 0.186.

U58A U70A: the self-cleavage came out at 0.588.

As to C10G A47U, the self-cleavage was 0.175.

Regarding A23G G29A, the self-cleavage was 0.0583.

For U5G U7A, the self-cleavage is 0.2.

For C16A U55C, the self-cleavage was determined as 0.288.

As for C3A U53A, the self-cleavage amounted to 0.662.

On to C12G A39U, for which the self-cleavage was 0.32.

G57A G68A: the self-cleavage was 0.119.

Take U14A A35G: the self-cleavage is 0.956.

For U7A G15C, the self-cleavage came to 1.06.

Consider C18A A43C, for which the self-cleavage worked out at 0.107.

In the case of A31C U53A, the self-cleavage amounted to 0.126.

In the case of G13C C50G, the self-cleavage amounted to 0.278.

For A30C C37G, the self-cleavage was 0.277.

Take U14A A39C: the self-cleavage was determined as 0.515.

Take C12A C18U: the self-cleavage is 0.834.

Turning to G54A C65A, the self-cleavage stood at 0.497.

For A45C, the self-cleavage was 0.154.

C6U U8C: the self-cleavage came to 0.686.

In the case of A30U A41U, the self-cleavage is 0.232.

As to G13U U67C, the self-cleavage came out at 0.211.

In the case of U5C A30U, the self-cleavage was determined as 0.11.

Consider C66U A71C, for which the self-cleavage worked out at 0.757.

For C4A G19C, the self-cleavage turned out to be 0.143.

Consider A43U U52G, for which the self-cleavage turned out to be 0.139.

Turning to U5C A61U, the self-cleavage came out at 0.105.

Consider A49C A71C, for which the self-cleavage was 0.291.

On to G1U C38G, for which the self-cleavage worked out at 0.0981.

For the variant G25U U63C, the self-cleavage is 0.184.

The values above are taken from the RNAGym collection of RNA variant scans (doi:10.7554/elife.80360).
